Consider 2 molecules from PMC10540216, “Activity Guided Azide-methyllysine Photo-trapping for Substrate Profiling of Lysine Demethylases” (Journal of the American Chemical Society, 2023).

What all share (assay type): cell-based, human
For experiment [1], the system named is CBX1-eIF4A3 interaction. Nature of the experiment: Interactome pull-down of eIF4A3 using recombinant CBX1 from HEK293T nuclear extracts. To be noted: 6xHis CBX1, Ni-NTA beads.
Experiment [2] relates to CBX1-eIF4A3 interaction. Nature of the experiment: Immunoprecipitation using CBX1 antibody from HEK293T cells, eIF4A3 immunoblot. To be noted: vs control vector. The procedure: concentration. The samples were then heated to 65°C for 15 minutes and loaded into a 4-12% polyacrylamide gel for Western blotting.
22. Immunoprecipitation using eIF4A3 and CBX1 antibodies […]
Then 4 mg of nuclear extracts were added and left mixing overnight at 4°C. The following day, the beads were pelleted, and the supernatant was removed.
The beads were washed twice with 50 mM Tris pH 7.5, 100 mM KCl, 0.1% Triton X. Laemmli dye (4X) was added to “elution buffer” from the Protein A Dynabead kit for a final 1X concentration. Each sample received 60 µL of the denaturing elution solution and was then incubated at 65°C for 15 minutes. The beads were pelleted on the magnetic rack and the supernatants were collected to perform Western blots. […]
Each microcentrifuge tube received an CBX1 antibody mixture containing 10 µL antibody (ProteinTech cat. # 10241-2-AP). The antibodies […]
were incubated with the beads using gentle agitation for 1 hour at 4°C. The beads were then washed 2x with conjugation buffer (200 µl of 20 mM sodium phosphate, 0.15M NaCl). BS3 crosslinking solution (250 µl of 5 mM BS3 in conjugation buffer) was added to each aliquot and incubated at room temperature for 20 minutes. The supernatant was removed and a second round of BS3 solution was administered for 5 minutes at room temperature. […]

Experiment [3] has as its system eIF4A3 trimethylation in HEK293T cells. Nature of the experiment: Immunoprecipitation of eIF4A3 from HEK293T cells and Kme3 immunoblot. To be noted: eIF4A3 IP, pan-Kme3 immunoblot, vs control vector or control siRNA.

Entries after “also recorded” stand apart in the source; their conditions may differ.

B1: KDM4A: full-length wild-type KDM4A overexpressed in HEK293T cells (protein, UniProt O75164 1-1064, looked up)
chain: MASESETLNPSARIMTFYPTMEEFRNFSRYIAYIESQGAHRAGLAKVVPPKEWKPRASYDDIDDLVIPAPIQQLVTGQSGLFTQYNIQKKAMTVREFRKIANSDKYCTPRYSEFEELERKYWKNLTFNPPIYGADVNGTLYEKHVDEWNIGRLRTILDLVEKESGITIEGVNTPYLYFGMWKTSFAWHTEDMDLYSINYLHFGEPKSWYSVPPEHGKRLERLAKGFFPGSAQSCEAFLRHKMTLISPLMLKKYGIPFDKVTQEAGEFMITFPYGYHAGFNHGFNCAESTNFATRRWIEYGKQAVLCSCRKDMVKISMDVFVRKFQPERYKLWKAGKDNTVIDHTLPTPEAAEFLKESELPPRAGNEEECPEEDMEGVEDGEEGDLKTSLAKHRIGTKRHRVCLEIPQEVSQSELFPKEDLSSEQYEMTECPAALAPVRPTHSSVRQVEDGLTFPDYSDSTEVKFEELKNVKLEEEDEEEEQAAAALDLSVNPASVGGRLVFSGSKKKSSSSLGSGSSRDSISSDSETSEPLSCRAQGQTGVLTVHSYAKGDGRVTVGEPCTRKKGSAARSFSERELAEVADEYMFSLEENKKSKGRRQPLSKLPRHHPLVLQECVSDDETSEQLTPEEEAEETEAWAKPLSQLWQNRPPNFEAEKEFNETMAQQAPHCAVCMIFQTYHQVEFGGFNQNCGNASDLAPQKQRTKPLIPEMCFTSTGCSTDINLSTPYLEEDGTSILVSCKKCSVRVHASCYGVPPAKASEDWMCSRCSANALEEDCCLCSLRGGALQRANDDRWVHVSCAVAILEARFVNIAERSPVDVSKIPLPRFKLKCIFCKKRRKRTAGCCVQCSHGRCPTAFHVSCAQAAGVMMQPDDWPFVVFITCFRHKIPNLERAKGALQSITAGQKVISKHKNGRFYQCEVVRLTTETFYEVNFDDGSFSDNLYPEDIVSQDCLQFGPPAEGEVVQVRWTDGQVYGAKFVASHPIQMYQVEFEDGSQLVVKRDDVYTLDEELPKRVKSRLSVASDMRFNEIFTEKEVKQEKKRQRVINSRYREDYIEPALYRAIME
modifications: full-length
As to B1, the “eIF4A3 enrichment by recombinant CBX1 pull-down” value in the experiment with CBX1-eIF4A3 interaction [1] was “decreased the association”. Besides, in the experiment on CBX1-eIF4A3 interaction [2], the “eIF4A3 enrichment by endogenous CBX1 (IP)” value was “decreased in KDM4A-transfected cells; also recorded: reduced it compared to control vector-transfected cells”. Besides, in experiment [3], the “eIF4A3 Kme3 level” value is “significantly reduced the Kme3 level; also recorded: robustly deceases eIF4A3 methylation; also recorded: robust eIF4A3 demethylation”.

B2: G9a: full-length G9a methyltransferase expressed in HEK293T cells (protein, UniProt Q96KQ7 1-1210, looked up)
chain: MAAAAGAAAAAAAEGEAPAEMGALLLEKETRGATERVHGSLGDTPRSEETLPKATPDSLEPAGPSSPASVTVTVGDEGADTPVGATPLIGDESENLEGDGDLRGGRILLGHATKSFPSSPSKGGSCPSRAKMSMTGAGKSPPSVQSLAMRLLSMPGAQGAAAAGSEPPPATTSPEGQPKVHRARKTMSKPGNGQPPVPEKRPPEIQHFRMSDDVHSLGKVTSDLAKRRKLNSGGGLSEELGSARRSGEVTLTKGDPGSLEEWETVVGDDFSLYYDSYSVDERVDSDSKSEVEALTEQLSEEEEEEEEEEEEEEEEEEEEEEEEDEESGNQSDRSGSSGRRKAKKKWRKDSPWVKPSRKRRKREPPRAKEPRGVNGVGSSGPSEYMEVPLGSLELPSEGTLSPNHAGVSNDTSSLETERGFEELPLCSCRMEAPKIDRISERAGHKCMATESVDGELSGCNAAILKRETMRPSSRVALMVLCETHRARMVKHHCCPGCGYFCTAGTFLECHPDFRVAHRFHKACVSQLNGMVFCPHCGEDASEAQEVTIPRGDGVTPPAGTAAPAPPPLSQDVPGRADTSQPSARMRGHGEPRRPPCDPLADTIDSSGPSLTLPNGGCLSAVGLPLGPGREALEKALVIQESERRKKLRFHPRQLYLSVKQGELQKVILMLLDNLDPNFQSDQQSKRTPLHAAAQKGSVEICHVLLQAGANINAVDKQQRTPLMEAVVNNHLEVARYMVQRGGCVYSKEEDGSTCLHHAAKIGNLEMVSLLLSTGQVDVNAQDSGGWTPIIWAAEHKHIEVIRMLLTRGADVTLTDNEENICLHWASFTGSAAIAEVLLNARCDLHAVNYHGDTPLHIAARESYHDCVLLFLSRGANPELRNKEGDTAWDLTPERSDVWFALQLNRKLRLGVGNRAIRTEKIICRDVARGYENVPIPCVNGVDGEPCPEDYKYISENCETSTMNIDRNITHLQHCTCVDDCSSSNCLCGQLSIRCWYDKDGRLLQEFNKIEPPLIFECNQACSCWRNCKNRVVQSGIKVRLQLYRTAKMGWGVRALQTIPQGTFICEYVGELISDAEADVREDDSYLFDLDNKDGEVYCIDARYYGNISRFINHLCDPNIIPVRVFMLHQDLRFPRIAFFSSRDIRTGEELGFDYGDRFWDIKSKYFTCQCGSEKCKHSAEAIALEQSRLARLDPHPELLPELGSLPPVNT
modifications: full-length
notes: full-length G9a methyltransferase expressed in HEK293T cells
For the molecule B2, in the experiment on CBX1-eIF4A3 interaction [1], the “eIF4A3 enrichment by recombinant CBX1 pull-down” value is given as “maximum enrichment of eIF4A3”. Besides, in the experiment on CBX1-eIF4A3 interaction [2], the “eIF4A3 enrichment by endogenous CBX1 (IP)” value is given as “increased in G9a-transfected cells; also recorded: robust enrichment of eIF4A3 by CBX1”. In experiment [3], the “eIF4A3 Kme3 level” value is given as “increased Kme3 compared to the control vector; also recorded: considerable increase in Kme3 on eIF4A3”.
